Measured values from PMC4423619 (Journal of glycomics & lipidomics, 2015).

Molecular target: T1, rat testis FSH receptor (rat (endogenous in rat testis), UniProt P20395 18-692)
T1 sequence (looked up): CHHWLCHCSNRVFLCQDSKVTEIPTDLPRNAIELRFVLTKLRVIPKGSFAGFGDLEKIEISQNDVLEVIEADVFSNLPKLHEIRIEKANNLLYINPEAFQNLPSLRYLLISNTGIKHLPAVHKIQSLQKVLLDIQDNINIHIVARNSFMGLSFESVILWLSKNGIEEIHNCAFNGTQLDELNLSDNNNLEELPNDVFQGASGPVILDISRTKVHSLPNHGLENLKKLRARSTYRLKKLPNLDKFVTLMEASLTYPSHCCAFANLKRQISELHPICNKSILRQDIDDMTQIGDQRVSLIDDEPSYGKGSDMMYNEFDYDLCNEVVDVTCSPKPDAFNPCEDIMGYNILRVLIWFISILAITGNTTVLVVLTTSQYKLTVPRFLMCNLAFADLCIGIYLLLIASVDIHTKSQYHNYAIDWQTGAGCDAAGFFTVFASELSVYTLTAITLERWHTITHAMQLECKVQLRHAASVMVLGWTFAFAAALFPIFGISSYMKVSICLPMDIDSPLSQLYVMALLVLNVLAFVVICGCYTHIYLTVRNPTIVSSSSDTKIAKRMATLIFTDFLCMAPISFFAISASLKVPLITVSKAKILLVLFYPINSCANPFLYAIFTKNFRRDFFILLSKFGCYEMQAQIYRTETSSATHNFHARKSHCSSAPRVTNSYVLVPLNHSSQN
Assay: radioligand binding

ID50: 269 ng
B1: human pituitary hFSH^24 glycoform (fully-glycosylated hFSH^24) (complex)
chain 1: not shown
chain 2: NSCELTNITIAIEKEECRFCISINTTWCAGYCYTRDLVYKDPARPKIQKTCTFKELVYETVRVPGCAHHADSLYTYPVATQCHCGKCDSDSTDCTVRGLGPSYCSFGEMKE
modifications: N-glycans at Asn52 and Asn78 | N-glycans at Asn7 and Asn24
